Data: patent publication US20220306739A1 (Janssen / Centocor, published 2022)

Assays:
[1] = target: T1, TRBC2 TCR on HPB-ALL cells (human, UniProt A0A5B9 1-178); experiment: flow cytometry cell binding to HPB-ALL cells (TRBC2), signal:background ratio
T1 construct: whole, on cells; Only the constant domain is named; also called HPB-ALL cell line that endogenously expresses TRBC2 TCR
T1 TCR beta (looked up): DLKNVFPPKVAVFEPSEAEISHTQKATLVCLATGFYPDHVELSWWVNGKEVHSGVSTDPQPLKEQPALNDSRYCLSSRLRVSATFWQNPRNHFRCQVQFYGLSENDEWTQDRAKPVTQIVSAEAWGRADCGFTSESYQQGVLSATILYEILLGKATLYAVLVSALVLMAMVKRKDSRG

[2] = target: T2, TCR with TRBC1 on Jurkat cells (human, UniProt P01850 1-176); experiment: flow cytometry on TRBC1 expressing Jurkat cells
T2 construct: whole, on cells; Only the constant domain is named; also called TRBC1 expressing Jurkat cell lines; transfected Jurkat cells
T2 TCR beta (looked up): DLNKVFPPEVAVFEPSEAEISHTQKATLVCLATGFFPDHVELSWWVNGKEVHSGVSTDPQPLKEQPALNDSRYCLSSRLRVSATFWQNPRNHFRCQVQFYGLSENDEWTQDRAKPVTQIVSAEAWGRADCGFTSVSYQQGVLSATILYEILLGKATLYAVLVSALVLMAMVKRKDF
Experimental: Cells were washed with wash buffer (PBS+2% FBS) and the fluorescence of stained cells was measured on Novocyte flow cytometer. Cells were visualized on forward and sideward scatter and doublets were excluded. No secondary antibody control was used to establish background fluorescence and to gate on specific population. Background value was subtracted from main samples to get specific binding value.

B1: anti-TRBC1 antibody JOVI-1 mIgG2a (TRB1B1) (antibody, V domains shown)
VH: EVRLQQSGPDLIKPGASVKMSCKASGYTFTGYVMHWVKQRPGQGLEWIGFINPYNDDIQSNERFRGKATLTSDKSSTTAYMELSSLTSEDSAVYYCARGAGYNFDGAYRFFDFWGQGTTLTVSS
VL: DVVMTQSPLSLPVSLGDQASISCRSSQRLVHSNGNTYLHWYLQKPGQSPKLLIYRVSNRFPGVPDRFSGSGSGTDFTLKISRVEAEDLGIYFCSQSTHVPYTFGGGTKLEIK
notes: Mouse IgG2a monoclonal, commercially sourced; also called mJOVI-1; mouse anti-human TRBC1 clone JOVI-1 mAb
In the case of B1, the binding result [1] is reported as “no binding” and the EC50 [2] is reported as 1 to 2 nM.
